B1: unnamed (parent)
chain 1: MATDIDMLIDLGLDLSDSDLDEDPPEPAESRRDDLESDSSGECSSSDEDMEDPHGEDGPEPILDAARPAVRPSRPEDPGVPSTQTPRPTERQGPNDPQPAPHSVWSRLGARRPSCSPEQHGGKVARLQPPPTKAQPARGGRRGRRRGRGRGGPGAADGLSDPRRRAPRTNRNPGGPRPGAGWTDGPGAPHGEAWRGSEQPDPPGGQRTRGVRQAPPPLMTLAIAPPPADPRAPAPERKAPAADTIDATTRLVLRSISERAAVDRISESFGRSAQVMHDPFGGQPFPAANSPWAPVLAGQGGPFDAETRRVSWETLVAHGPSLYRTFAGNPRAASTAKAMRDCVLRQENFIEALASADETLAWCKMCIHHNLPLRPQDPIIGTTAAVLDNLATRLRPFLQCYLKARGLCGLDELCSRRRLADIKDIASFVFVILARLANRVERGVAEIDYATLGVGVGEKMHFYLPGACMAGLIEILDTHRQECSSRVCELTASHIVAPPYVHGKYFYCNSLF
chain 2: not shown

The experiment covers variants of B1. The experiment can be described thus: co-immunoprecipitation with densitometry of Western blot. The conditions noted are these: 293T cells transfected with GFP-tagged ICP27 and its mutants, IP with polyclonal GFP-specific antibody and Protein A agarose, 3 independent experiments, read off a plot, scale: relative binding normalised against GFP control. (Immunoblotting shows a protein as a band on a membrane.)
For the variant chain 1 W105A, the response is 0.32. In the case of chain 1 W105A R107A L108A it was 0.3; in that of chain 1 R107A L108A, 0.37.

Values taken from paper PMC3017119, “Structural Basis for the Recognition of Cellular mRNA Export Factor REF by Herpes Viral Proteins HSV-1 ICP27 and HVS ORF57” (PLoS Pathogens, 2011).
